Consider 1 molecule from patent US20240366728A1 (CARMOT THERAPEUTICS, published 2024).

What all share (assay): cell-based or functional assay
For test [1], the target named is T1, human GIPR (human, UniProt P48546 22-466).
T1 sequence (looked up): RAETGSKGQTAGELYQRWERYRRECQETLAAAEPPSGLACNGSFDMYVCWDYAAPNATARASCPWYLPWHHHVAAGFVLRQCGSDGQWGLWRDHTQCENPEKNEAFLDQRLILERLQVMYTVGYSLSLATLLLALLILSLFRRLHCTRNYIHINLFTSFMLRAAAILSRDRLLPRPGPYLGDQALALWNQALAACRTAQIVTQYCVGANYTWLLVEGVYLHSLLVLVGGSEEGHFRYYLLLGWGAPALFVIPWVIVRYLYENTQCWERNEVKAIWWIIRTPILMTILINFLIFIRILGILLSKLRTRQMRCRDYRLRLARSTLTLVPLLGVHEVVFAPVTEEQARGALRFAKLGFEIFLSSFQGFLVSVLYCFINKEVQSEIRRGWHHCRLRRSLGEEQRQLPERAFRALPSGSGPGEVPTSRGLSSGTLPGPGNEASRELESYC

For test [2], the target named is T2, human GLP-1R (human, UniProt P43220 24-463).
Test [3] has as its target T3, mouse GIPR (mouse, UniProt Q0P543 19-460).
T3 sequence (looked up): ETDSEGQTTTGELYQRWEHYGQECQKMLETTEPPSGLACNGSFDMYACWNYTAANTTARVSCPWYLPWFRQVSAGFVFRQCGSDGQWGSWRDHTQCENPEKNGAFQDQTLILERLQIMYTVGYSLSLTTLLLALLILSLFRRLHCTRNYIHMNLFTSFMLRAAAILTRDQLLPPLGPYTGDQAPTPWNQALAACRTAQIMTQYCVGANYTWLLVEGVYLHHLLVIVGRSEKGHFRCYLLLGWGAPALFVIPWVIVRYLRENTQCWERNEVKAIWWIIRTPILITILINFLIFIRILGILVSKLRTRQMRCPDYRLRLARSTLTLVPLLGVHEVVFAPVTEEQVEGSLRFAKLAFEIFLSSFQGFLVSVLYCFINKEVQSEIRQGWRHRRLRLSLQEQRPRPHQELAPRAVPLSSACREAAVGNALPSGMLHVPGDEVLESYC

Test [4] has as its target T4, mouse GLP-1R (mouse, UniProt O35659 22-463).
T4 sequence (looked up): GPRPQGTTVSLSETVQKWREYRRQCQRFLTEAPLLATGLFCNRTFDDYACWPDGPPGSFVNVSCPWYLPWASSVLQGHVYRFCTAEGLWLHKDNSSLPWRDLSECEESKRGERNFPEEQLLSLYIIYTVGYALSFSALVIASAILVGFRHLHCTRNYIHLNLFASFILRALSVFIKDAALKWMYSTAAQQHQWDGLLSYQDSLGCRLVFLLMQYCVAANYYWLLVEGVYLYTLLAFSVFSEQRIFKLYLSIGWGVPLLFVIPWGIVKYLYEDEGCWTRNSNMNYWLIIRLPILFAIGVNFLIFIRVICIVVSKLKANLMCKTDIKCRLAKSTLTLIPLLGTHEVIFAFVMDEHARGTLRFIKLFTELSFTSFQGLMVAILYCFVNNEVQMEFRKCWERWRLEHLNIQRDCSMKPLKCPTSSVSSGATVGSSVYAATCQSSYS

The target in test [5] is T1, human GIPR. The source holds these as a separate data set.
The target in test [6] is T2, human GLP-1R. The source holds these as a separate data set.

B1: CT-868 (peptide)
peptide: EGTFTSDYSIYLDKQAAXEFVNWLLAGGPSSGAPPPSK
modifications: N-terminal 2-(2-Piperidon-1-yl)-ethylcarbamoylmethylthio-acetyl on Glu; Aib (18th residue of the printed chain); C-terminal Lys(γ-Glu-palmitoyl)-NH2; hydrochloride salt
As for B1, in test [1], the “hGIPR Internalization EC50” value came out at 14 nM, the “hGIPR cAMP (-alb) EC50” value stood at 1.9 nM, the “hGIPR β-arrestin-2 EC50” value is 13 nM and the “hGIPR/hGLP-1R cAMP ratio” value amounted to 12. In addition, in test [2], the “hGLP-1R Internalization EC50” value amounted to 3.1 nM, the “hGLP-1R cAMP (-alb) EC50” value amounted to 0.156 nM and the “hGLP-1R β-arrestin-2 EC50” value came to 11 nM. In test [3], the “mGIPR cAMP (-alb) EC50” value was found to be 1.03 nM, the “mGIPR β-arrestin-2 EC50” value was determined as 6.21 nM and the “mGIPR/mGLP-1R cAMP ratio” value worked out at 6. Besides, in test [4], the “mGLP-1R cAMP (-alb) EC50” value is 0.164 nM and the “mGLP-1R β-arrestin-2 EC50” value came out at 21.1 nM. In test [5], the “fold less potent than GIP (cAMP accumulation)” value stood at 16 fold and the “ratio GLP-1R over GIPR (cAMP potency)” value was ~19.4. Also, the “fold less potent than GLP-1 (cAMP accumulation)” value in test [6] turned out to be 6 fold.
